Starred links: 1 amine or outer side, 2 acyl side, 3 side chain; linkers in the order of their positions; H or OH if unused. Positions of bridges follow the written chain, without caps; N, C: chain ends. Non-standard residues stand in square brackets, D forms with d. No end group written: not given here. *: point of attachment. Yde = (2S)-2-amino-3-[4-[2-(dimethylamino)ethoxy]phenyl]propanoic acid, CN(C)CCOc1ccc(C[C@H](N[*:1])C(=O)[*:2])cc1; Trp(7-Me) = Cc1cccc2c(C[C@H](N)C(=O)O)c[nH]c12; 2Nal = N[C@@H](Cc1ccc2ccccc2c1)C(=O)O; εLys = N[C@@H](CCCCN[*:1])C(=O)[*:2]; Palmitoyl = CCCCCCCCCCCCCCCC(=O)*; 3Pal = N[C@@H](Cc1cccnc1)C(=O)O; Dad = desamino-aspartamic acid; Lys(Me) = CNCCCC[C@H](N)C(=O)O; αMeL = CC(C)C[C@](C)(N)C(=O)O; αMeK = C[C@](N)(CCCCN)C(=O)O; NMeC = CN[C@@H](CS)C(=O)O; Thp = NC1(C(=O)O)CCOCC1; Aib = CC(C)(N)C(=O)O; Ava = NCCCCC(=O)O; Sar = CNCC(=O)O
T1: IL-23 receptor on the surface of HEK-Blue IL-23 cells (UniProt Q5VWK5 24-629, limits assumed)
T1 sequence (looked up): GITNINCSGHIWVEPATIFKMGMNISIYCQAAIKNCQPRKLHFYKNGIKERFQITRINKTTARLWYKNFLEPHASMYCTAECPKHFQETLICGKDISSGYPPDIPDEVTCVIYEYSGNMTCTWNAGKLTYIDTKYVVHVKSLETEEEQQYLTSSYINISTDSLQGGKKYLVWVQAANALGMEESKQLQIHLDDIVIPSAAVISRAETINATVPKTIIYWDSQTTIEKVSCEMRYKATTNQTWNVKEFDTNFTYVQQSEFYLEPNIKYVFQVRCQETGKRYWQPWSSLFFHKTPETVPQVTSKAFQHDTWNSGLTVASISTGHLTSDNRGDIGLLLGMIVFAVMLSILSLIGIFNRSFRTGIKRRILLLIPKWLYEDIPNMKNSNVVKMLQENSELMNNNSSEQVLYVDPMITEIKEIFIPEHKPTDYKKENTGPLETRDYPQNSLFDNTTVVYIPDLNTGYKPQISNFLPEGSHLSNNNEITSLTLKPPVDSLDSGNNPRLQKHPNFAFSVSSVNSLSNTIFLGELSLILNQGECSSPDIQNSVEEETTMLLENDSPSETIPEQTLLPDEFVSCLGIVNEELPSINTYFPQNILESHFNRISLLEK


What follows are binders tested against T1, IL-23 receptor on the surface of … (assay: cell-based or functional assay).

pSTAT3 (nM) | Binder
0.15 | [Ava]C[εLys](Ac)[Trp(7-Me)]K(Ac)C[Yde][2Nal][Thp]EN[3Pal][Sar]-NH2 (lactam N-10; disulfide 2-6; also: Cys2 carboxyl joined to epsilon-NH2 of Lys3 (isopeptide bond), Lys3 alpha-N acetylated) [Compound of SEQ ID NO: 66]
3.94 | XXKXLCXXXXAXX (Dad(§1)-Nmc(§3)(@2)-K[aAc](@3)-Wim-L-C(@2)-Yde-Nal-Mie-Kme(§1)-A-Pal-Sar-NH2) [Compound of SEQ ID NO: 70]
0.12 | [Dad][NMeC]K[Trp(7-Me)]K(Ac)C[Yde][2Nal][Thp][Lys(Me)]N[3Pal][Sar]-NH2 (lactam 1-10; disulfide 2-6; not fully specified (residue 3); printed as Dad(§1)-Nmc(§3)(@2)-K[aAc](@3)-Wim-K[Ac]-C(@2)-Yde-Nal-Thp-Kme(§1)-N-Pal-Sar-NH2; also: Nmc2 carbonyl joined by amide bond to epsilon-NH2 of Lys3 (branched isopeptide), Lys3 alpha-NH2 acetylated) [Compound of SEQ ID NO: 74]
0.12 | [Ava]C[εLys](Ac)[Trp(7-Me)]K(Ac)C[Yde][2Nal][Aib]EN[3Pal][Sar]-NH2 (lactam N-10; disulfide 2-6; also: Cys2 carboxyl joined to epsilon-NH2 of Lys3 (isopeptide bond), Lys3 alpha-N acetylated) [Compound of SEQ ID NO: 72]
22.6 | [Ava]C[εLys](Ac)[Trp(7-Me)]K(Ac)C[Yde][2Nal][αMeK](Palmitoyl)EN[3Pal][Sar]-NH2 (lactam N-10; disulfide 2-6; also: Cys2 carboxyl joined to epsilon-NH2 of Lys3 (isopeptide bond), Lys3 alpha-N acetylated) [Compound of SEQ ID NO: 67]
2.69 | [Dad]C[εLys](Ac)[Trp(7-Me)]LC[Yde][2Nal][αMeL][Lys(Me)]N[3Pal][Sar]-NH2 (lactam (positions not given here); disulfide 2-6; not fully specified (bridges); printed as Dad(§1)-C(§3)(@2)-K[aAc](@3)-Wim-L-C(@2)-Yde-Nal-Mle-Kme(§1)-N-Pal-Sar-NH2; also: Cys2 bonded to ε-NH2 of Lys3 (isopeptide backbone)) [Compound of SEQ ID NO: 68]
2.35 | [Dad]CNT[Trp(7-Me)]QC[Yde][2Nal][Aib]KN[3Pal]K-NH2 (lactam (positions not given here); disulfide 2-7; not fully specified (residue 14, bridges); printed as Dad(§1)-C(@2)-N-T-Wim-Q-C(@2)-Yde-Nal-Aib-K(§1)-N-Pal-K[Sema]-NH2) [Compound of SEQ ID NO: 71]
3.07 | [Dad][NMeC][εLys](Ac)[Trp(7-Me)]LC[Yde][2Nal][αMeL][Lys(Me)]N[3Pal][Sar]-NH2 (lactam (positions not given here); disulfide 2-6; not fully specified (bridges); printed as Dad(§1)-Nmc(§3)(@2)-K[aAc](@3)-Wim-L-C(@2)-Yde-Nal-Mle-Kme(§1)-N-Pal-Sar-NH2; also: Nmc2 carboxyl joined to epsilon-NH2 of Lys3 (isopeptide bond), Lys3 alpha-N acetylated) [Compound of SEQ ID NO: 69]
0.1 | [Ava]C[εLys](Ac)[Trp(7-Me)]K(Ac)C[Yde][2Nal][αMeL]EN[3Pal][Sar]-NH2 (lactam N-10; disulfide 2-6; also: Cys2 carboxyl joined to epsilon-NH2 of Lys3 (isopeptide bond), Lys3 alpha-N acetylated) [Compound of SEQ ID NO: 73]

From patent US20260258084A1, “New Peptides as Selective IL-23 Receptor Antagonists” (Sanofi, priority 2022, published 2026)
